Laboratory results: US20220389406A1

Molecular target: HLA-A*02:01-restricted MART-1 epitope, A*02:0
Assay: cell-based or functional assay

- frequency of the TCR in post-real-selection (CD137-positive, sorted) against pre-selection polyclonal TCR-T cells, by NGS: 10 fold
Substance: DMF4 (TCR)
